Test results taken from patent US7026443.
Read-outs that look alike come from different tables or passages of the source.

Columns and labels:
[1] = target: HLA-A*1101 (human); test: competition with 125I-labelled standard peptide for purified HLA, gel filtration
[2] = target: HLA-A*0301 (human); test: as above
[3] = target: HLA-A*1101 (human); test: competition with 125I-labelled standard peptide for purified HLA-A*1101, gel filtration
[4] = target: HLA-A*0301 (human); test: competition with 125I-labelled standard peptide for purified HLA-A*0301, gel filtration
[5] = target: HLA-A*0301 (human)

B1: HPV18 E7 peptide TMLCMCCK (position 60, 8 amino acids) (peptide)
peptide: TMLCMCCK
modifications: not checked
relative binding ratio (IC50 of standard peptide / IC50 of test peptide) [1]: 0.024
relative binding ratio (IC50 of standard peptide / IC50 of test peptide) [2]: 0.024

B2: … (HPV16 E6, position 145, 9 amino acids) (peptide)
peptide: SCCRSSRTR
modifications: not checked
relative binding ratio (IC50 of standard peptide / IC50 of test peptide) [3]: 0.0001

B3: HPV16 E1 191 … (peptide)
peptide: LTNILNVLK
modifications: not checked
binding affinity ratio (IC50 of standard peptide / IC50 of test peptide) (ratio to standard peptide) [3]: 0.42
binding affinity ratio (IC50 of standard peptide / IC50 of test peptide) [4]: 0.0086

B4: HPV18 E6 peptide … (position 95, 10 amino acids) (peptide)
peptide: NTGLYNLLIR
modifications: not checked
relative binding ratio (IC50 of standard peptide / IC50 of test peptide) [5]: 0.0002
relative binding ratio (IC50 of standard peptide / IC50 of test peptide) [1]: 0.0013
relative binding ratio (IC50 of standard peptide / IC50 of test peptide) [2]: 0.0002

B5: HPV45 E1 209 … (peptide)
peptide: GLSFTDLVR
modifications: not checked
relative binding ratio (IC50 of standard peptide / IC50 of test peptide) (ratio to standard peptide) [1]: 0.0025
relative binding ratio (IC50 of standard peptide / IC50 of test peptide) (ratio to standard peptide) [2]: 0.0009

B6: HPV18 E1 position 341 peptide … (peptide)
peptide: GDTPEWIQR
modifications: not checked
binding affinity ratio (IC50 of standard peptide / IC50 of test peptide) [3]: 0.0002

B7: HPV18 E6 peptide … (position 84, 9 amino acids) (peptide)
peptide: SVYGDTLEK
modifications: not checked
relative binding ratio (IC50 of standard peptide / IC50 of test peptide) [5]: 0.08
relative binding ratio (IC50 of standard peptide / IC50 of test peptide) [1]: 0.23
relative binding ratio (IC50 of standard peptide / IC50 of test peptide) [2]: 0.08

B8: … (HPV16 E1, position 497, 9 amino acids) (peptide)
peptide: SVICFVNSK
modifications: not checked
binding affinity ratio (IC50 of the standard peptide / IC50 of the test peptide) [3]: 0.0002

B9: HPV18 E6 131 … (peptide)
peptide: AGHYRGQCH
modifications: not checked
binding affinity ratio (IC50 of standard peptide / IC50 of test peptide) [3]: 0.0002

B10: HPV18 E6 peptide … (position 83, 10 amino acids) (peptide)
peptide: DSVYGDTLEK
modifications: not checked
relative binding ratio (IC50 of standard peptide / IC50 of test peptide) (ratio to standard peptide) [5]: 0.0005
relative binding ratio (IC50 of standard peptide / IC50 of test peptide) [1]: 0.0051
relative binding ratio (IC50 of standard peptide / IC50 of test peptide) [2]: 0.0005

B11: HPV16 E1 620 … (peptide)
peptide: LSLHEDEDK
modifications: not checked
binding affinity ratio (IC50 of standard peptide / IC50 of test peptide) (ratio to standard peptide) [3]: 0.0002
binding affinity ratio (IC50 of standard peptide / IC50 of test peptide) [4]: 0.0005

B12: HPV18 E6 peptide … (position 68, 9 amino acids) (peptide)
peptide: CIDFYSRIR
modifications: not checked
relative binding ratio (IC50 of standard peptide / IC50 of test peptide) (ratio to standard peptide) [5]: 0.0001
relative binding ratio (IC50 of standard peptide / IC50 of test peptide) [1]: 0.0001
relative binding ratio (IC50 of standard peptide / IC50 of test peptide) [2]: 0.0001

B13: … (HPV16 E7, position 68, 10 amino acids) (peptide)
peptide: CVQSTHVDIR
modifications: not checked
relative binding ratio (IC50 of standard peptide / IC50 of test peptide) [3]: 0.0001

B14: … (HPV16 E1, position 484, 9 amino acids) (peptide)
peptide: SLFGMSLMK
modifications: not checked
binding affinity ratio (IC50 of the standard peptide / IC50 of the test peptide) [3]: 7.1

B15: … (HPV16 E1, position 196, 9 amino acids) (peptide)
peptide: NVLKTSNAK
modifications: not checked
binding affinity ratio (IC50 of the standard peptide / IC50 of the test peptide) [3]: 0.0015

B16: HPV18 E6 peptide … (position 59, 9 amino acids) (peptide)
peptide: SIPHAACHK
modifications: not checked
relative binding ratio (IC50 of standard peptide / IC50 of test peptide) [1]: 0.12
relative binding ratio (IC50 of standard peptide / IC50 of test peptide) [2]: 0.017
relative binding ratio (IC50 of standard peptide / IC50 of test peptide) [4]: 0.017

B17: … (HPV16 E1, position 109, 9 amino acids) (peptide)
peptide: RLKAICIEK
modifications: not checked
binding affinity ratio (IC50 of the standard peptide / IC50 of the test peptide) [3]: 0.051

B18: HPV45 E1 267 … (peptide)
peptide: LILALLRYK
modifications: not checked
relative binding ratio (IC50 of standard peptide / IC50 of test peptide) (ratio to standard peptide) [1]: 0.18
relative binding ratio (IC50 of standard peptide / IC50 of test peptide) (ratio to standard peptide) [2]: 0.27

B19: … (HPV16 E7, position 88, 10 amino acids) (peptide)
peptide: GIVCPICSQK
modifications: not checked
relative binding ratio (IC50 of standard peptide / IC50 of test peptide) ([3]; remark: other sources report otherwise): 0.067

B20: HPV18 E6 117 … (peptide)
peptide: KLRHLNEKR
modifications: not checked
binding affinity ratio (IC50 of standard peptide / IC50 of test peptide) [3]: 0.0005

B21: … (HPV16 E6, position 116, 9 amino acids) (peptide)
peptide: PLCPEEKQR
modifications: not checked
relative binding ratio (IC50 of standard peptide / IC50 of test peptide) [3]: 0.0005

B22: HPV18 E6 peptide … (position 101, 10 amino acids) (peptide)
peptide: LLIRCLRCQK
modifications: not checked
relative binding ratio (IC50 of standard peptide / IC50 of test peptide) [5]: 0.047
relative binding ratio (IC50 of standard peptide / IC50 of test peptide) [1]: 0.12
relative binding ratio (IC50 of standard peptide / IC50 of test peptide) [2]: 0.047

B23: HPV31 E6 peptide … (position 109, 9 amino acids; Seq. Id. No. 10308) (peptide)
peptide: PLCPEEKQR
modifications: not checked
relative binding ratio (IC50 of standard peptide / IC50 of test peptide) [1]: 0.0005
relative binding ratio (IC50 of standard peptide / IC50 of test peptide) [2]: 0.0002

B24: HPV18 E6 peptide EVFEFAFK (position 43, 8 amino acids) (peptide)
peptide: EVFEFAFK
modifications: not checked
relative binding ratio (IC50 of standard peptide / IC50 of test peptide) (ratio to standard peptide) [5]: 0.0025
relative binding ratio (IC50 of standard peptide / IC50 of test peptide) [1]: 0.018
relative binding ratio (IC50 of standard peptide / IC50 of test peptide) [2]: 0.0025

B25: HPV16 E1 544 … (peptide)
peptide: LVSMDVKHR
modifications: not checked
binding affinity ratio (IC50 of standard peptide / IC50 of test peptide) (ratio to standard peptide) [3]: 0.0089
binding affinity ratio (IC50 of standard peptide / IC50 of test peptide) [4]: 0.0005
